Patent US20030069395A1 (DYAX, published 2003)
Bridges are numbered along the chain shown (N, C = ends). Where no end group is shown, it is not given here. [ ]: non-standard residue; d: D form. fluorescein = fluorescein label; Ahx = NCCCCCC(=O)O

Experiments:
[1] = molecular target: T1, human serum albumin (HSA) (human, UniProt P02768 25-609); experiment: fluorescence anisotropy; pH 9.1, 0.14 M NaCl (as the head marks it), no caprylate
T1 construct: also called caprylate-biotinylated-HSA
Protocol: (§1) Affinity determinations were made by first labeling polypeptides on the C-terminal end with NHS-fluorescein. Fluorescence anisotropy measurements were performed in 384-well microplates in a volume of 10 μl in binding buffer using a Tecan Polarion fluorescence polarization plate reader. The concentration of fluorescein labeled peptide was held constant (20 nM), and the concentration of HSA was varied. For pH 6.2, 7.1, and 7.4 binding conditions, a 3 mM phosphate, 0.01% Tween-20 buffer was used. For pH 9.1 binding conditions, a 3 mM sodium bicarbonate buffer, 0.01% Tween-20 nonionic detergent buffer was used. Once NaCl was added to any of these buffers, their pH was adjusted again to achieve the original pH. The binding mixtures were equilibrated for 10 minutes in the microplate at 30° C. prior to performing the measurement. The observed change in anisotropy was fit to the equation below via nonlinear regression to obtain the apparent KD. This equation assumes that the peptide and HSA form a reversible complex with 1:1 stoichiometry.

[2] = molecular target: T1, human serum albumin (HSA); experiment: fluorescence anisotropy; pH 6.2, 0.14 M NaCl, no caprylate
Protocol: as §1

[3] = molecular target: T1, human serum albumin (HSA); experiment: fluorescence anisotropy; buffer not named in Table 2
[4] = molecular target: T1, human serum albumin (HSA); experiment: fluorescence anisotropy, truncated peptides
Protocol: as §1

[5] = molecular target: T1, human serum albumin (HSA); experiment: fluorescence anisotropy; pH 7.4, 0.14 M NaCl, no caprylate
Protocol: as §1

[6] = molecular target: T1, human serum albumin (HSA); experiment: fluorescence anisotropy; pH 7.4, 0.14 M NaCl, 0.1% caprylate
Protocol: as §1
Once all the positive phage isolates were sequenced, peptides corresponding to the display peptide were synthesized. A small amount of constant phage sequence surrounding each varied amino acid sequence region was retained and either a -GGGK-NH₂ (SEQ ID NO: 24) amino acid sequence or -X-K-NH₂ C-terminal tail was added to each peptide, where X is 6-aminohexanoic acid and K-NH₂ is an amidated terminal lysine residue. The constant phage sequence was retained because these residues can often play a role in target binding. To determine its affinity for HSA , each peptide was labeled with fluorescein on the C-terminal lysine side chain.

[7] = molecular target: T1, human serum albumin (HSA); experiment: phage ELISA on caprylate-biotinylated HSA held on streptavidin wells; TN12/1 solution-capture selection
[8] = molecular target: rabbit serum albumin (Rabbit, UniProt P49065 25-608); experiment: fluorescence anisotropy; 3 mM phosphate, pH 6.2, 0 M NaCl
[9] = molecular target: pig serum albumin (Pig, UniProt P08835 25-607); experiment: as above
[10] = molecular target: T2, chicken ovalbumin (Chicken, UniProt P01012 2-386); experiment: fluorescence anisotropy; 3 mM phosphate, pH 6.2, 0 M NaCl; negative control
T2 construct: Negative control; also called Chicken (egg)
T2 sequence (looked up): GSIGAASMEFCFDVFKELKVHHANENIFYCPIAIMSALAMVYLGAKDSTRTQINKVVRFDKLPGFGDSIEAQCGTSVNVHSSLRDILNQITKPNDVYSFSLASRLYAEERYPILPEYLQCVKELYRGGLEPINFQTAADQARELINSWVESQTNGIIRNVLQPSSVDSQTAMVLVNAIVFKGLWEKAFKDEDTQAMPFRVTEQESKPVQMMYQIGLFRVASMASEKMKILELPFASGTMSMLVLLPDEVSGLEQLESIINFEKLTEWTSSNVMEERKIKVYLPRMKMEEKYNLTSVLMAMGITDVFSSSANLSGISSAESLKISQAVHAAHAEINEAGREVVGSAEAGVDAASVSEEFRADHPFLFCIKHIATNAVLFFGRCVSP

[11] = molecular target: T2, chicken ovalbumin; experiment: fluorescence anisotropy; PBS, pH 7.4, 0.14 M NaCl; negative control
[12] = molecular target: T1, human serum albumin (HSA); experiment: fluoresceinated peptide; 3 mM phosphate buffer, pH 6.2, no salt
Protocol: as §1
(§2) Each of the polypeptides was fluoresceinated and tested for binding against an immobilized HSA target as described above.

[13] = molecular target: T1, human serum albumin (HSA); experiment: fluoresceinated peptide; PBS
Protocol: as §1, §2

rabbit serum albumin, sequence (P49065 25-608 limits assumed): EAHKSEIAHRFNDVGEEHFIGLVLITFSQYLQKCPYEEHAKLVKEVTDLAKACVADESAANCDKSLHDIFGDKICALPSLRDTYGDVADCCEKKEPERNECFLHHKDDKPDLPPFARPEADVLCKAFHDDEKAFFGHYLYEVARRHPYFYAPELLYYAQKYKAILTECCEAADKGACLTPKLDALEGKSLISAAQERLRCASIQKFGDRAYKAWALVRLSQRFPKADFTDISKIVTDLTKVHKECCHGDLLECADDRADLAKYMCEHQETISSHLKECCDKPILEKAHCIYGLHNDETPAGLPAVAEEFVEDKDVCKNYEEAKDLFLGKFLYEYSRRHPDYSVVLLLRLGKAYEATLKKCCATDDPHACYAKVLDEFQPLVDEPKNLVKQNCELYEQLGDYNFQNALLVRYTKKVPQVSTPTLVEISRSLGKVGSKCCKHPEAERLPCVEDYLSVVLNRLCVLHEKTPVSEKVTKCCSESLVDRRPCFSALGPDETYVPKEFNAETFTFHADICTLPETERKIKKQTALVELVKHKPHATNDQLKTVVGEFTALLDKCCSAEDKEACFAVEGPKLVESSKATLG
pig serum albumin, sequence (P08835 25-607 limits assumed): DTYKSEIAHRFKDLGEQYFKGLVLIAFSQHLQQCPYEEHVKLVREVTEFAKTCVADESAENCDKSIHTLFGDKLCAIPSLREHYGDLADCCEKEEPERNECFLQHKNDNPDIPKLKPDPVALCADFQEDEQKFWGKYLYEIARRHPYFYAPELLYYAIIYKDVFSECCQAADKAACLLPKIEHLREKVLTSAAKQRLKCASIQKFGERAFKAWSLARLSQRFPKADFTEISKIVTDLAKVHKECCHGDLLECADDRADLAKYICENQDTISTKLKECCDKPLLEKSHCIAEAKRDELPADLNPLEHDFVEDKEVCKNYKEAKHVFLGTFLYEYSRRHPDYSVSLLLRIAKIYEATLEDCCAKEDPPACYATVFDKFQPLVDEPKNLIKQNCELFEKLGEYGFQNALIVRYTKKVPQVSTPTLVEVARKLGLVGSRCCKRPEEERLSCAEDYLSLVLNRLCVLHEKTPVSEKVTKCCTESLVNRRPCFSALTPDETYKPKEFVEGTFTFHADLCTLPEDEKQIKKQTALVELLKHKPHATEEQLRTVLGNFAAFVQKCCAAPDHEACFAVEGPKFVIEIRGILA

**Q.** How did the Kd [1] turn out when Ac-AEGTGSNHGCWHFSCIWDAPE[Ahx]K(fluorescein)-NH2 (disulfide 10-15) [DX-298, Ac-AEGTGSNHGCWHFSCIWDAPE-X-K-NH2] was run?
**A.** Its Kd is over 200 µM.

**Q.** What about the Kd [2] of the same binder?
**A.** The Kd was over 200 µM.

B1: truncated peptide of DX-236, Ac-FWFCDRIAWYPQHLCEFLDPEGGGK-NH2 (peptide)
peptide: Ac-FWFCDRIAWYPQHLCEFLDPEGGGK(fluorescein)-NH2
modifications: not fully specified (bridges); printed as Ac-FWFCDRIAWYPQHLCEFLDPEGGGK-NH2; cysteine pairing not given here
**Q.** What does the source list for B1?
**A.** Kd [3]: 8.9 µM; fold increase in KD against DX-236 (SEQ ID NO: 19) [4]: ~4 fold

**Q.** With Ac-AEGTGDDWQCVKDWANRRRGCMADDPE[Ahx]K(fluorescein)-NH2 (disulfide 10-21) [DX-319, Ac-AEGTGDDWQCVKDWANRRRGCMADDPE-X-K-NH2] as the binder, how does the Kd [5] read?
**A.** The Kd was over 200 µM.

**Q.** What about the Kd [2] of the same binder?
**A.** The Kd was over 200 µM.

**Q.** Which results are given for Ac-AEGTGDDWDCVTRWANRDQQCWGPDPE[Ahx]K(fluorescein)-NH2 (disulfide 10-21) [DX-313, Ac-AEGTGDDWDCVTRWANRDQQCWGPDPE-X-K-NH2]?
**A.** Kd [1]: 90 µM; Kd [5]: > 200 µM; Kd [2]: 80 µM

B2: DX-315, Ac-AEGTGDDWDCVTRWANRDQQCWALDPE-X-K-NH2 (peptide)
peptide: Ac-AEGTGDDWDCVTRWANRDQQCWALDPE[Ahx]K(fluorescein)-NH2
modifications: not fully specified (bridges); printed as Ac-AEGTGDDWDCVTRWANRDQQCWALDPE-X-K-NH2; cysteine pairing not given here
**Q.** What does the source list for B2?
**A.** Kd [6]: > 100 µM; Kd [2]: > 200 µM

**Q.** Which Kd [6] does the source give for Ac-AEGTGSHVGCNNALCMQYAPE[Ahx]K(fluorescein)-NH2 (disulfide 10-15) [DX-296, Ac-AEGTGSHVGCNNALCMQYAPE-X-K-NH2] here?
**A.** Its Kd is over 200 µM.

**Q.** And the Kd [2]?
**A.** Its Kd is over 100 µM.

B3: phage isolate displaying DWDCVTRWANRDQQCWGP (SEQ ID NO: 247) (peptide)
chain: DWDCVTRWANRDQQCWGP
modifications: not fully specified (bridges); cysteine pairing not given here
notes: Whole phage in the ELISA; not shown: protein III of M13 phage; the display peptide stands at its amino terminus
**Q.** Does B3 bind [7]?
**A.** Result: binds

B4: truncated peptide of DX-236, Ac-AEGTGDFWFCDRIAWYPQHLCGGGK-NH2 (peptide)
peptide: Ac-AEGTGDFWFCDRIAWYPQHLCGGGK(fluorescein)-NH2
modifications: not fully specified (bridges); printed as Ac-AEGTGDFWFCDRIAWYPQHLCGGGK-NH2; cysteine pairing not given here
**Q.** How did the Kd [3] turn out when B4 was run?
**A.** The Kd was 8.9 µM.

**Q.** What about the “fold increase in KD against DX-236 (SEQ ID NO: 19)” value [4] of the same binder?
**A.** Its value is about 4 fold.

**Q.** Which Kd [6] does the source give for Ac-AEGTGSWKVCDHFFCLSPAPE[Ahx]K(fluorescein)-NH2 (disulfide 10-15) [DX-297, Ac-AEGTGSWKVCDHFFCLSPAPE-X-K-NH2] here?
**A.** Its Kd is over 200 µM.

**Q.** And the Kd [5]?
**A.** The Kd was over 200 µM.

**Q.** And the Kd [2]?
**A.** Its Kd is over 200 µM.

**Q.** Which results are given for Ac-AEGTGDFWFCDRIAWYPQHLCEFLDPEGGGK-NH2 (not fully specified; cysteine pairing not given here) [DX-236, Ac-AEGTGDFWFCDRIAWYPQHLCEFLDPEGGGK-NH2]?
**A.** Kd [8]: 0.5 µM; Kd [9]: 0.5 µM; Kd [10]: > 200 µM; Kd [11]: > 200 µM

**Q.** With Ac-AEGTGDFAFCDRIAWYPQHLCEFLDPEGGGK-NH2 (cysteine pairing not given here; also: fluoresceinated, site not given here) [alanine mutant of DX-236, Ac-AEGTGDFAFCDRIAWYPQHLCEFLDPEGGGK-NH2] as the binder, how does the Kd [12] read?
**A.** The Kd was 2.3 µM.

**Q.** For Ac-AEGTGDFWFCDAIAWYPQHLCEFLDPEGGGK-NH2 (cysteine pairing not given here; also: fluoresceinated, site not given here) [alanine mutant of DX-236, Ac-AEGTGDFWFCDAIAWYPQHLCEFLDPEGGGK-NH2], which Kd [12] is on record?
**A.** The Kd was 1.5 µM.

B5: alanine mutant of DX-236, Ac-AEGTGDFWFCDRIAWYPQHACEFLDPEGGGK-NH2 (peptide)
peptide: Ac-AEGTGDFWFCDRIAWYPQHACEFLDPEGGGK-NH2
modifications: cysteine pairing not given here; also: fluorescein label, position not given here
**Q.** With B5 as the binder, how does the Kd [12] read?
**A.** The Kd was 2 µM.

**Q.** With Ac-AEGTGDFWFCDRIAWYPAHLCEFLDPEGGGK-NH2 (cysteine pairing not given here; also: fluoresceinated, site not given here) [alanine mutant of DX-236, Ac-AEGTGDFWFCDRIAWYPAHLCEFLDPEGGGK-NH2] as the binder, how does the Kd [12] read?
**A.** Its Kd is 2.2 µM.

**Q.** With Ac-AEGTGDAWFCDRIAWYPQHLCEFLDPEGGGK-NH2 (cysteine pairing not given here; also: fluoresceinated, site not given here) [alanine mutant of DX-236, Ac-AEGTGDAWFCDRIAWYPQHLCEFLDPEGGGK-NH2] as the binder, how does the Kd [12] read?
**A.** Its Kd is 5.1 µM.

**Q.** With Ac-AEGTGDFWFCDRIAWAPQHLCEFLDPEGGGK-NH2 (cysteine pairing not given here; also: fluoresceinated, site not given here) [alanine mutant of DX-236, Ac-AEGTGDFWFCDRIAWAPQHLCEFLDPEGGGK-NH2] as the binder, how does the Kd [12] read?
**A.** The Kd was 1.4 µM.

**Q.** Ac-AEGTGDFWFCDRIAWYAQHLCEFLDPEGGGK-NH2 (cysteine pairing not given here; also: fluoresceinated, site not given here) [alanine mutant of DX-236, Ac-AEGTGDFWFCDRIAWYAQHLCEFLDPEGGGK-NH2] was tested. Which Kd [12] did it give?
**A.** The Kd was 1.3 µM.

**Q.** For Ac-AEGTGDFWFCARIAWYPQHLCEFLDPEGGGK-NH2 (cysteine pairing not given here; also: fluoresceinated, site not given here) [alanine mutant of DX-236, Ac-AEGTGDFWFCARIAWYPQHLCEFLDPEGGGK-NH2], which Kd [13] is on record?
**A.** The Kd was 5 µM.

**Q.** How did the Kd [12] turn out when Ac-AEGTGAFWFCDRIAWYPQHLCEFLDPEGGGK-NH2 (cysteine pairing not given here; also: fluoresceinated, site not given here) [alanine mutant of DX-236, Ac-AEGTGAFWFCDRIAWYPQHLCEFLDPEGGGK-NH2] was run?
**A.** Its Kd is 5.1 µM.

**Q.** How did the Kd [12] turn out when Ac-AEGTGDFWFCDRIAAYPQHLCEFLDPEGGGK-NH2 (cysteine pairing not given here; also: fluoresceinated, site not given here) [alanine mutant of DX-236, Ac-AEGTGDFWFCDRIAAYPQHLCEFLDPEGGGK-NH2] was run?
**A.** The Kd was 1.4 µM.
